Assay results from a protein production outcome set (Wang et al. 2014).

Assay: label from the status in PepcDB records

| Sequence | protein production |
| --- | --- |
| MTFSANFSLVLPEVVLAIAALVLLVAGTFRGKVGAIFTLAAVASLIAAAATAVLGPKGVAFGGVYVADAAATYAKVAIYLSSAVAVVLGDRWLAQRGDQKFEYAVLVILAALGMGVTASAGDLISLYIGVELQSLALYVLAAMRRDDAKSSEAGLKYFVLGALSSGLLLYGSSLIYGFTGSTHFSQIALAAAHGGSHGVGLLFGLVFVICGLAFKVSAAPFHMWTPDVYEGAPTPVVGFFSAAPKLAAMMMFARVLGDAFPASEEQWRQILVIAALLSVFVGAFAGLAQSNLKRLWAYSSIANVGYALLGVAAGGEVGLQSMLIFMTLYMVDVTGFFACLQALNRDGKPMETIQDMAGLVKQRPGIALAMTAFSLSALGLPPFSGFWAKYFVFKAAMGSGDVMLQWAAVIGLVGSVVAAFYYLRLIKAMWFDDAAGAVDAPSPSARAVGFAAAIFSFPIVLVALVWLEPAAKAAAAAFGHA | failed |
| MNILYNERIDGVLPAVDKQQLLDELRRQLPDLDVLHRTEELRPYECDGLSAYRTTPMLVVLPRHLEEVQTLLRLCHAHRVPVVARGAGTGLSGGALPLEKGVLLVMARFNQILAIDPAARVARVQPGVRNLAISQAAAPHGLYYAPDPSSQIACSIGGNVAENAGGVHCLKYGLTVHNLLKVEILTVEGEAMTLGSDTLDSPGFDLLALFTGSEGMLGIITEVTVKLLPRPQVAKVLLAAFDSVEKAGRAVADIIAAGIIPGGLEMMDNLAIRAAEDFIHAGYPVDAEAILLCELDGVEADVHADCERVREVLTQAGATEVRQAIDEAERVRFWAGRKNAFPAVGRLSPDYYCMDGTIPRRALPGVLRGISELSGQYGLRVANVFHAGDGNMHPLILFDANQPGELQRAEALGGKILELCVEVGGSITGEHGVGREKINQMCAQFNSDELTFFHAIKAAFDASGMLNPGKNIPTLQRCAEFGAMHIHAGQLPFPELERF | failed |
| MAEWSKAPDSSSGLRKRAWIRPWQREHMTIESVDHETRSMTQRFTVPEFFEGYKMITSTTKVNDSAIGLYSLVDISVEYDKTGPEIKDLDQVQFLVDYINELVLRTGGQLLRRLK | failed |
| FPIPLPYCWLCRALIKRIQAMIPKGALAVAVAQVCRVVPLVAGGICQCLAERYSVILLDTLLGRMLPQLVCRLVLRCSM | failed |
| MKLVNVTNSYKQLVNKQLENTDAYFVKVYSAGNTTAVYSEAAHHVEVLIMNKNRRIRPTEVKEILAKLLKRLPKEAYDPDEISIIELNHVTEVSVPLKVSLME | failed |
| MFLTVKLLLGQRCSLKVSGQESVATLKRLVSRRLKVPEEQQHLLFRGQLLEDDKHLSDYCIGPNASINVIMQPLEKMAL | failed |
| MRLINTTSSHPELVRNQLQNTDAKLVEVYSAGNTDVVFTKAPKHYELLISNKYRAIKDEELEAIREFFLKRKIDQSIIIQEQMKSLHTAKLIEISYPTTA | failed |
| MSGSNSSNHLHEREGTSEESREQSHKHSGLFNPRLFLHSLSHKFSHTPFHKHSHVHPHEHSHGHSHTHGRVDPSIIATQKGLWAVKWSFIGLMVTAVLQIFIVIMSGSVALLADTIHNFGDASTAIPLAIAFTLARRKPSKRFSYGYGRVEDLAGVIIVFLILFSAAVAGYESVTRFLNPRPVEHLQAVALAAIIGCIGNEVVAQFRMKVGKEIGSAALIADGYHARMDGFTSLAVLVGAVGVWLGYPILDPLIGMLITIAILKIVLDSSKLVFTRLLDGVEPEVLDQVKAIAEGVEGVCEVTDLRVRWIGHRLHAEINASVDPSLSVEEGHEIANAVREKLLENFSYLSGTTIHVDPVTASGECCHCGSESPDKRLGRQKRVLNVYPG | failed |
| MKMDTGALTFQQKIYWLVKQIPLGRVATYGQIAALCGWPRHGRYVGYALYRVAPNSDIPWHRVVNAQGKISYAPQRRGTDELQRWRLAAEGIIFTAGDRINLRRYQWQPPATVYQQLIWPEGAATDSAKALEHHHHHH | not failed |
| MQNNSYGYAVSVRVGGKEHRHWERYDIDSDFLIPADSFDFVIGRLGPEAAIPDLSGESCEVVIDGQIVMTGIIGSQRHGKSKGSRELSLSGRDLAGFLVDCSAPQLNVKGMTVLDAAKKLAAPWPQIKAVVLKAENNPALGKIDIEPGETVWQALTHIANSVGLHPWLEPDGTLVVGGADYSSPPVATLCWSRTDSRCNIERMDIEWDTDNRFSEVTFLAQSHGRSGDSAKHDLKWVYKDPTMTLHRPKTVVVSDADNLAALQKQAKKQLADWRLEGFTLTITVGGHKTRDGVLWQPGLRVHVIDDEHGIDAVFFLMGRRFMLSRMDGTQTELRLKEDGIWTPDAYPKKAEAARKRKGKRKGVSHKGKKGGKKQAETAVFE | not failed |
| MESLTQYIPDEFSMLRFGKKFAEILLKLHTEKAIMVYLNGDLGAGKTTLTRGMLQGIGHQGNVKSPTYTLVEEYNIAGKMIYHFDLYRLADPEELEFMGIRDYFNTDSICLIEWSEKGQGILPEADILVNIDYYDDARNIELIAQTNLGKNIISAFSN | not failed |
| MSLLSLLIALAADRSLSAKVWQFNFYYQHYHHFFSKNFTAKQGTTASAVFIILPVIATYLLLDVIDNSVLQLLFSTVILIVCFGCTTTRKSYKSYLHSAFRGEETTTEMHHEQLLSDKNLPEMGFGQALIWLNYRYYIAIMLFFTVFGAAGAVFYRLLTTVIEHKKAKCMASAAENKAQAEVSSVDESDIESEEHHQAVHEGNVAPNIMNGCQNHHDVLFWLDWLPVRIASFGYMFVGHFSKAMPVWLESLFDSQKPTHQVLIDVAEKSEDLLVNENDCTAEPCLLVRLAKRNVLLVLAVISILTLSGLLN | failed |
| MILLTKITLLLFSSIFFSYILYMKSHSFKKIEPRKCSLNLMIIGMAFIVVGEFLNFISSFVKYRVDIYVSFCFILGAILFVIFAIIFLNSVDNTLKCLYGCVYEDAMTGVYNRNGIKKIFKDTINKEDNFFVMSFDLDETKIINDNFGHLVGDEYIISAARAIKEVLGAKGVVGRTGGDEFAAIYISTDQEELKKVKTHINKRASEIFNGSNINISMGFSTYKKDGKNMKELFDLADKRMYQDKKNKRKADQRF | failed |
| MAIQLKKGNRISLKKEAPGLKKVMLGLGWDMATSSSGGGFFGIFKKPAGSIDLDSGVLCLDSQGKLNSASDFVYYANLNHKSGAIAHQGDNLTGAGEGDDEQIFVDLEQVPATIQSLLFTVTIYQGRQRGQEFGQIKNAFVRLVDLSNNQEIAHYKLSGETYQGKTGMLMAELRREENGWAMTALGDGLDPQDSENLLKKYR | failed |
| MMCRSITLFLFALISIVVGKQLSAQSISELRLLIDSGRYDRALPIAQQLVAKNPKHADNNYMLGLLLYKAERYEEAIAPLRVAVSRRSDAYEMLADAYAKEYFFSEALAALEKQKVTLVKKKQETVSIDAGIDRMRRAVRLLDRAEWVEVIDSVRTNKADLLSAYNLIADNGRLEWVKGNQGEATSFVNGRGDHAIMTEKGEDGVYSLHEAHRIGGKWGNAIPLEKLNSRFNENYPSLRADGFTLLFASDRPDGIGGYDLYMTRRDLEDGIFLEPTLLGMPFNSPYNDYLLVYDELRGIGFFASDRFCPADVVTVYTFVINEEGRPVATDDMALKRAYASLKSIRATQDPERDYSRLIASARDNRTDAEKKASERQIYFPMQGMRIYTRWSDFQSSEAKSLYQDVMARKRKLEQAATRLEELRLLYGRASALERSGMKQEILRLENAIPPLEEEVGRMEKEVRNMELQAVQGF | failed |
| MEVFLKEFLLNKFFIDFFYKNQNNITIKTILVTFKVIFSICFNSSNFGLRYSKKKTLNLSELMHLVTFMLAYFLIQV | failed |
| MVAKGLIRIVLDILKPHEPIIPEYAKYLSELRGVEGVNITLMEIDKETENIKVTIQGNDLDFDEITRAIESYGGSIHSVDEVVAGRTMVEEVTTPQD | failed |
| MTAVRRIRAAALPDLPDASWSNALLVGEELVMSGMTAHPATRQAAERGAALDAHAQALVVLGKVKALLEAAGGHVGNLYKLNVYVTRIADKDAIGRARQEFFAGQGTFPASTLVEVSGLVFPELLVEIDAWARLDIDLANCDEA | not failed |
| MNTLIASLEKVILPFAVKIGKQPHVNAIKNGFIRLMPLTLTGAMFVLINNVFLSFGEGSFFYSLGVRLDASTIETLNSLKSIGGSVYNGTLGIMSLMTPFFISMALAEERKVDPLASALLAVAAFMTVTPFNVGEAYAVGANWLGGANIISGMVIGLAVAEMFAFIVRRNWVISLPDSVPASVSRSFSALIPGFIILSIMGLVAFALAHWGTNFHQIIMDGISAPLAKMGSVVGWVYVLFSSLLWFFGVHGSMALAALDSGIMTPFALENVELYNKYGSVEAAVAAGKEFHMWAKPFVDSYIYLGGTGSTLGLIIAIFIASRREDYRQVAKLATPSGIFQINEPILFGLPVIMNPVMFIPFILVQPVLTIITSLAYYSGLIPPITNIAPWTMPVGLGAFFNTNGSIMAMLLSLFNLAVATVIYLPFVAISNKAQSQIDAATESEEDIAKALKF | failed |
| MRYGFMKVAAAVPFVKVADCEYNIERIDRMVHEADAKGVEIMTFPELSITGYSCGDLFFQPFLQERANEALCRLVEQTANTTVMVIVGMPLRVEEKLFNSAVVFQQGKILGAIPKTYLPNYREFQEARWFSPAHTLQYSTISIGQHSVPIGRNLIFKCGTVGVGIEICEDMWTPFTPGTRLCLYGAEVIFNLSSSNENAGKHSYLRSLISGLSSQGICAYVYASSGYGESSTDIVFTGKAFIAEAGEIVEEMERFRYEERMIISDIDVSRIQTERLINSSFKAAVTFHTHDEKFNQLPFKLRSRQESLPMTRRVDRNPFMPEDKDRKERSREMINIQVCGLMQRLLHMGAEHAVIGISGGLDSALALIVCAQAFDRLDLPRKNIIAVTMPGFGTSDRTYRNAFALMEAIGVTIKEIDIKEACLRHFEAIGHNPEVQDTTFENTQARERTQILMNLANIYNAPVIGTGDLSELALGWVTYNGDHMSMYAVNAGIAKTTVQILVDHIAHSGWLDEAASAVLLDIVRTPISPELKPVGQDGNISQKTEDLVGPYELHDFFIYHFLHNEYKPSKIYYLAGVAFKGIYTKAEIKKWMMVFFRRFFAQQYKRNCMPDGPKVSCISLSPRGAWRMASDASSALWLDEIAKFETDLEHHHHHH | failed |
| MNTYLKNSPGFWIGRIHHKLKNRMNQRLKPYDLTAEQRLILLRLFEFGEMTQQQLCQKTFTEPSNITLTLRRMESHGYVRKKPHPKDKRASLIEATPKALSIQNELERIGLEITDSLLLEVDPSEKETLLRVLQAMYQKMLQEEAIEEFSF | failed |
| RRCQVHLLDDRKLELLVQPKLLAKELLDLVASHFNLKEKEYFGIAFTDETGHLNWLQLDRRVLEHDFPKKSGPVVLYFCVR | failed |
| MKLRYLNILKEKLGREPTFVELQAFSVMWSEHCGYSHTKKYIRRLPKTGFEGNAGVVNLDDYYSVAFKIESHNHPSAIEPYNGAATGVGGIIRDVLAMGARPTAIFDSLHMSRIIDGIIEGIADYGNSIGVPTVGGELRISSLYAHNPLVNVLAAGVVRNDMLVDSKASRPGQVIVIFGGATGRDGIHGASFASEDLTGDKATKLSIQVGDPFAEKMLIEAFLEMVEEGLVEGAQDLGAGGVLSATSELVAKGNLGAIVHLDRVPLREPDMEPWEILISESQERMAVVTSPQKASRILEIARKHLLFGDVVAEVIEEPVYRVMYRNDLVMEVPVQLLANAPEEDIVEYTPGKIPEFKRVEFEEVNAREVFEQYDHMVGTDTVVPPGFGAAVMRIKRDGGYSLVTHSRADLALQDTYWGTLIAVLESVRKTLSVGAEPLAITNCVNYGDPDVDPVGLSAMMTALKNACEFSGVPVASGNASLYNTYQGKPIPPTLVVGMLGKVNPQKVAKPKPSKVFAVGWNDFELEREKELWRAIRKLSEEGAFILSSSQLLTRTHVETFREYGLKIEVKLPEVRPAHQMVLVFSERTPVVDVPVKEIGTLSR | not failed |
| DPDEDSDNSAIYVQGLNDSVTLDDLADFFKQCGVVKMNKRTGQPMIHIYLDKETGKPKGDATVSYEDPPTAKAAVEWFDGKDFQGSKLKVSLARKKPPMN | not failed |
| VEVESFLVHPGDLLQLRCRLRDDVQSINWLRDGVQLAESNRTRITGEEVEVQDSVPADSGLYACVTSSPSGSDTTYFSVNVSDALP | not failed |
